# Measured values as given in the supplement of paper PMC10065799, “High-throughput profiling of sequence recognition by tyrosine kinases and SH2 domains using bacterial peptide display” (eLife, 2023).
# Experiments:
# [1] = tested on: AncSZ; experiment: phosphorylation enrichment, bacterial display (enrichment ratio); higher = better substrate or ligand; peptides without Tyr show the background
# [2] = target: EPHB1 (UniProt P54762); experiment: as above
# [3] = target: EPHB2 (UniProt P29323); experiment: as above
# [4] = target: FGFR1 (UniProt P11362); experiment: as above
# Chain of FGFR1 (P11362 whole entry, looked up): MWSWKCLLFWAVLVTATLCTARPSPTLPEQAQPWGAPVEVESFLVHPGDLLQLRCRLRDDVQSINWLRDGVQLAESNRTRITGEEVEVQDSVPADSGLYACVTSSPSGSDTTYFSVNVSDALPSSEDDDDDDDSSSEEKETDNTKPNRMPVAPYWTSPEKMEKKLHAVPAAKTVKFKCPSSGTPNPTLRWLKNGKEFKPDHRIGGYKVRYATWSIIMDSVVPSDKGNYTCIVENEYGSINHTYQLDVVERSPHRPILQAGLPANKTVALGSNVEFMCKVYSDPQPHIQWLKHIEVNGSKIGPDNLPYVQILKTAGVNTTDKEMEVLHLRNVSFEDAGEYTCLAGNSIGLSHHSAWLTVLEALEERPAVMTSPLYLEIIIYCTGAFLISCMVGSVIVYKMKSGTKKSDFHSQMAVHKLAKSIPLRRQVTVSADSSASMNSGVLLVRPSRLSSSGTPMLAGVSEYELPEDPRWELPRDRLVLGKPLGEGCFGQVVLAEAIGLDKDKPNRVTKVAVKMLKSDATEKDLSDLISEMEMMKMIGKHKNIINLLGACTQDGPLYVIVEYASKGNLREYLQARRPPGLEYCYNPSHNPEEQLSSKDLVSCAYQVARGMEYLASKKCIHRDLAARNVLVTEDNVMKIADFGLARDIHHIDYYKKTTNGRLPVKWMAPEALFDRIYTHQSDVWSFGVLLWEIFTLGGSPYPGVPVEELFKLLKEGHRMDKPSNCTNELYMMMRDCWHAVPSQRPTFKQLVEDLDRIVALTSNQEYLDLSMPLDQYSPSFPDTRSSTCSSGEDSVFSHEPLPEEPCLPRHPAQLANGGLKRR
# [5] = target: FGFR3 (UniProt P22607); experiment: as above
# Chain of FGFR3 (P22607 whole entry, looked up): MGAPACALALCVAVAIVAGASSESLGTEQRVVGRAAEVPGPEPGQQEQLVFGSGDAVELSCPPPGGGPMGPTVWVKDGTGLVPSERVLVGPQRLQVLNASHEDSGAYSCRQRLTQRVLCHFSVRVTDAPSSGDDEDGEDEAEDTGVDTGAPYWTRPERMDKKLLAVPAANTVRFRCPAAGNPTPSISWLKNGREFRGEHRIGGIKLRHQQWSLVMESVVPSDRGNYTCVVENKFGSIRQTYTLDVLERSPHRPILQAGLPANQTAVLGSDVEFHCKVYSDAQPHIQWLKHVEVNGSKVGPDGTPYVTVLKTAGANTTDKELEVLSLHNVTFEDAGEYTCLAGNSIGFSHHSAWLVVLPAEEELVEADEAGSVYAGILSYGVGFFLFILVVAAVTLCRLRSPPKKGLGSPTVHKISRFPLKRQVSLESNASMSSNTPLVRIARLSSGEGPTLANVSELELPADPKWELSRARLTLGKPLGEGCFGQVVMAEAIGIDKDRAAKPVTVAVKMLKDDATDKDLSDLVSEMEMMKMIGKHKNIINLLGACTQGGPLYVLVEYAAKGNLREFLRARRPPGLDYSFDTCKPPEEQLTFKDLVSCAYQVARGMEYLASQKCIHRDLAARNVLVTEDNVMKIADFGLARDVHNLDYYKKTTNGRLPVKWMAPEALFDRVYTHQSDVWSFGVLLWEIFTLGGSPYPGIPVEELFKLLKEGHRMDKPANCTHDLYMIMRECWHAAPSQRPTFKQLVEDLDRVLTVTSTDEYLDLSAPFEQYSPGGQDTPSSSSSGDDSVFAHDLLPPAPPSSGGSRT
# [6] = tested on: Fer (mouse); experiment: as above
# [7] = target: Fes (UniProt P07332); experiment: as above
# [8] = target: Fyn (UniProt P06241); experiment: as above
# Chain of Fyn (P06241 whole entry, looked up): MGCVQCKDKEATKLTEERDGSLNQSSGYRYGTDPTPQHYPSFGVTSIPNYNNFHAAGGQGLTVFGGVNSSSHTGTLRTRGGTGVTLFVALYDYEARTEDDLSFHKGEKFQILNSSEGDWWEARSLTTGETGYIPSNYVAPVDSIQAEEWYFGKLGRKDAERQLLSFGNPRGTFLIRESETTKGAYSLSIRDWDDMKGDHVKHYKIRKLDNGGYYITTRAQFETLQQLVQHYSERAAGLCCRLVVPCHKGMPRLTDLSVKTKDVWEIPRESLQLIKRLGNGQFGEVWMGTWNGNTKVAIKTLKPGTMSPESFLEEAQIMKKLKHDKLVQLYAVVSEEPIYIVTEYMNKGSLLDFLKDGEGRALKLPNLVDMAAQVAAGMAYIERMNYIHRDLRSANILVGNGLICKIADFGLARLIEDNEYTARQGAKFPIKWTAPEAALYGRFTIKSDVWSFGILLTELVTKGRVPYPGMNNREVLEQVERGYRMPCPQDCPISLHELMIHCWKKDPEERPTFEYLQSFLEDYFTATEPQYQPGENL
# [9] = target: Hck (UniProt P08631); experiment: as above
# Chain of Hck (P08631 whole entry, looked up): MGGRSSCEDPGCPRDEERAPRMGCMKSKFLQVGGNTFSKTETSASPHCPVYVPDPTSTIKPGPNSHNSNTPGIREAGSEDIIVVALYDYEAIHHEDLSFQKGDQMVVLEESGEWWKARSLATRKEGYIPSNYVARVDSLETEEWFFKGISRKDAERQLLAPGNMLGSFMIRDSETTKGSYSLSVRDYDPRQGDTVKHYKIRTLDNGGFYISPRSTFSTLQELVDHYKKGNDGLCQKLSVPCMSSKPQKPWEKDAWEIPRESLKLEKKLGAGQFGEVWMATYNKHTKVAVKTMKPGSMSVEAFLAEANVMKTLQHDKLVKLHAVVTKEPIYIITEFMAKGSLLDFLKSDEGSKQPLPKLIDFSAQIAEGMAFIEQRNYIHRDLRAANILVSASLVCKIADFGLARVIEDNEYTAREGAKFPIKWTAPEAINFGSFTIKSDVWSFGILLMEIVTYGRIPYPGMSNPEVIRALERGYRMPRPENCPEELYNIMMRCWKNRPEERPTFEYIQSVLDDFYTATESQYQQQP
# [10] = target: Jak2 (UniProt O60674); experiment: as above
# Chain of Jak2 (O60674 whole entry, looked up): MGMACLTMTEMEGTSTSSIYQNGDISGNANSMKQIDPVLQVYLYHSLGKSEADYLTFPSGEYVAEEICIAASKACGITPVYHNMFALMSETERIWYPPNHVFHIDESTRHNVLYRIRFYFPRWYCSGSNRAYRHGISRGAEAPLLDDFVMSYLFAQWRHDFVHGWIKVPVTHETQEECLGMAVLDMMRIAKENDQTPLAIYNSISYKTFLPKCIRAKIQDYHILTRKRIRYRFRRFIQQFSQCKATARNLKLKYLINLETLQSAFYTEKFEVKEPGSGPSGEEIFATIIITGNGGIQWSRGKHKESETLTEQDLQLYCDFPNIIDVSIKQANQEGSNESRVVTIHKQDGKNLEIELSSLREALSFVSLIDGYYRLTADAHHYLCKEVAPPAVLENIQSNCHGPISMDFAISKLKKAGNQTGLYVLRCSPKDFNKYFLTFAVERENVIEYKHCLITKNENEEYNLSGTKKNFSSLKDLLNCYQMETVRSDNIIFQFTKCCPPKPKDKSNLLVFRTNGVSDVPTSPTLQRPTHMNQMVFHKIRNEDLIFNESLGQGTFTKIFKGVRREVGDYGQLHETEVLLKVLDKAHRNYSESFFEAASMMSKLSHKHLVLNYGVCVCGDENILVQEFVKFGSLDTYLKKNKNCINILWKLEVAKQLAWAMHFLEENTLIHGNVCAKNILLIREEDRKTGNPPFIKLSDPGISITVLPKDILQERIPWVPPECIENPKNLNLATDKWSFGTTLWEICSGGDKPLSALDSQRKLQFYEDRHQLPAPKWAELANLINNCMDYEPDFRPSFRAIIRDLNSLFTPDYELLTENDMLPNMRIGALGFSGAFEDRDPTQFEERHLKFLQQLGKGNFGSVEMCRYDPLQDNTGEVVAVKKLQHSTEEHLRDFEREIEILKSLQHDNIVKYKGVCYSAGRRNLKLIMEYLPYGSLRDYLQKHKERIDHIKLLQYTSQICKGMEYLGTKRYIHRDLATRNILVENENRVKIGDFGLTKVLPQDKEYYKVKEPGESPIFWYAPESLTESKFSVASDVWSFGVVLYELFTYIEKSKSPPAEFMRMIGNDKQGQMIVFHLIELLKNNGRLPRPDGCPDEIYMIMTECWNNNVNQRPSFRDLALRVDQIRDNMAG
# [11] = target: MERTK (UniProt Q12866); experiment: as above
# [12] = tested on: c-Abl (mouse); experiment: as above
# [13] = tested on: c-Src; experiment: as above
# [14] = target: Grb2 SH2 (UniProt P62993); experiment: SH2 binding enrichment of the phosphorylated peptide, bacterial display (enrichment ratio); higher = better substrate or ligand; peptides without Tyr show the background
# [15] = target: SHP2-C SH2; experiment: as above
# [16] = target: c-Src SH2; experiment: as above
# 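For SH2 binding enrichment of the phosphorylated peptide, bacterial display in this document: peptide library displayed on the E. coli surface as eCPX fusions, selected cells deep-sequenced, score is each peptide's frequency after selection divided by its frequency in the input.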
# 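For phosphorylation enrichment, bacterial display in this document: 11-residue human phosphosite peptides and single-mutation variants displayed on the E. coli surface, counted by deep sequencing, each peptide's frequency after selection divided by its frequency in the unselected input library; frequency after pTyr selection over input frequency; kinase dosed for 20-30% of maximal phosphorylation in three min.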
# Chain of EPHB1 (P54762 whole entry, looked up): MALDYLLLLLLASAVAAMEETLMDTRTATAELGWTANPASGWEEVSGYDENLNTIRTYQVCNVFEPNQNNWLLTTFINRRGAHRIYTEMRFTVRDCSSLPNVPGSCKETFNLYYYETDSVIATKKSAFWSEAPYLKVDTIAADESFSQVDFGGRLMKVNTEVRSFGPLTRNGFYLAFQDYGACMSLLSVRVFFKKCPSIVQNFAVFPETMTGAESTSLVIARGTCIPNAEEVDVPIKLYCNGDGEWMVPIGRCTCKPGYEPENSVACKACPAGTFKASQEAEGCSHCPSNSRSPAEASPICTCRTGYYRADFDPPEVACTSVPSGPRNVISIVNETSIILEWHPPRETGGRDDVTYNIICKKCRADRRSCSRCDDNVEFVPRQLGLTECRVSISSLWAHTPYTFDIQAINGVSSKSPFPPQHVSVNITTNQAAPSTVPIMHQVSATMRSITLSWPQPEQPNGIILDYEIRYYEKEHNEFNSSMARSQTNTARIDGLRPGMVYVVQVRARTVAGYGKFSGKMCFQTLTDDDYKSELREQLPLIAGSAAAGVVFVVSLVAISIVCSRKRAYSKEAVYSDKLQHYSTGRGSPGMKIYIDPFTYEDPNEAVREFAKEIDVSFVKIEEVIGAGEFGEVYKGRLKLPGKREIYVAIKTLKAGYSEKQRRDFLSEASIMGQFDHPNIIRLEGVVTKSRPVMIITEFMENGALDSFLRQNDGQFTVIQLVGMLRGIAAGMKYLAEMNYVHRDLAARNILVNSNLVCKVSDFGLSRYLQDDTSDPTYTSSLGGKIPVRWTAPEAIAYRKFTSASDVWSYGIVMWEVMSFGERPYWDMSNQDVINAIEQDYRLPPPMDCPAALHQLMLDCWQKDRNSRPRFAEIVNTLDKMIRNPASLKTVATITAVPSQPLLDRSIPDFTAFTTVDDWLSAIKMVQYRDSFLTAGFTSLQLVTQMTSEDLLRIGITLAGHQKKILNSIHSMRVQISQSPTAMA
Sequence,SH2 binding enrichment [14],SH2 binding enrichment [15],SH2 binding enrichment [16],phosphorylation enrichment [1],phosphorylation enrichment [2],phosphorylation enrichment [3],phosphorylation enrichment [4],phosphorylation enrichment [5],phosphorylation enrichment [6],phosphorylation enrichment [7],phosphorylation enrichment [8],phosphorylation enrichment [9],phosphorylation enrichment [10],phosphorylation enrichment [11],phosphorylation enrichment [12],phosphorylation enrichment [13]
NREGVYTVFAP [TGFBI_Y537],0.688,0.516,0.604,1.54,2.35,2.04,0.885,1.07,8.74,1.11,13.3,10,0.862,11.4,1.57,8.95
DFDHSYFFIAT [ESD_Y262_G257D_YF],0.828,0.568,0.455,2.16,0.717,0.606,8.9,7.62,0.786,1.36,0.55,0.694,7.99,0.867,0.958,0.738
STLEVYSCHPP [IL21R_Y317],0.71,0.559,0.451,1.33,1.04,1.34,0.698,1.04,0.904,1.56,1.25,1.27,1.38,0.774,1.31,1.65
GYQPEYGQPAG [SYP_Y278_D277E],0.801,0.553,0.495,0.662,0.451,0.451,0.401,0.659,0.487,0.851,0.426,0.419,0.725,0.467,0.466,0.443
RAFRRYLLKQK [SCN2A_Y1919_YF],0.829,0.44,0.454,0.708,0.535,0.61,0.617,0.865,0.675,0.703,0.696,0.63,0.712,0.971,0.531,0.671
PGIRMYRVQFN [LRFN1_Y454_Q455R_YF],0.796,0.606,0.469,1.35,0.468,0.642,0.622,0.618,0.611,1.14,0.656,0.485,0.844,0.652,0.512,0.607
AGTILYHAHLG [ASS1_Y291_D296G],0.737,0.543,0.483,0.819,0.534,0.633,0.517,0.625,0.495,1.07,0.564,0.61,0.816,0.863,0.727,0.549
RASGIYFVPKG [APBB1IP_Y340_YF],1.12,1.11,0.935,1.17,5.1,2.37,1.71,1.71,0.731,1.2,6.15,8.1,2.91,13.8,34.3,4.75
GPKSTYISSAA [GOLGA5_Y62],0.715,0.52,0.403,0.731,0.331,0.506,0.414,0.51,0.403,0.7,0.467,0.492,0.638,0.565,0.488,0.508
LGSVVYAQSKE [KCNQ2_Y226_H228Q],0.974,1.6,0.528,1.61,1.86,0.97,0.852,1.39,0.99,1.31,1.08,1.29,1.19,1.1,1.24,1.08
TFWKKYRTFWK [CCDC70_Y125],0.843,1.18,0.517,0.702,0.472,0.308,0.403,0.555,0.409,0.8,0.46,0.371,0.934,0.446,0.723,0.664
RIAFQYGDTDL [MYBPC3_Y340_V342D],0.954,0.742,0.577,1.1,0.743,0.825,0.703,0.737,0.689,1.24,0.81,0.432,0.784,0.544,0.735,0.381
KINKMYSDHAM,0.705,0.602,0.354,0.495,0.351,0.285,0.315,0.364,0.408,0.463,0.349,0.308,0.5,0.432,0.499,0.416
VKANTYEKFWL [GATM_Y100_P105L_YF],0.819,0.807,0.794,0.887,0.562,0.545,0.382,0.722,2.9,1.07,0.803,0.684,0.821,1.19,0.672,1.11
GGYTCCCDGKK [PROS1_Y266_Y266C],0.701,0.415,0.477,0.943,0.442,0.819,0.444,0.618,0.513,1,0.507,0.454,0.729,0.436,0.792,0.426
KEIHAYRKLLE [LMNA_Y376_M371K],0.68,0.569,0.459,0.63,0.397,0.481,0.429,0.487,0.468,0.76,0.344,0.476,0.59,0.414,0.489,0.506
TQPSPYAVFLF [RPGRIP1_Y823_R827L_YF],0.91,0.82,0.494,0.826,2.12,1.28,1.28,0.942,7.3,0.915,6.88,3.69,0.926,7.59,15.1,5.76
ADDSFYTARSA [ZAP70_Y493_YF],0.883,1.55,0.419,0.822,0.597,0.534,0.55,0.904,0.451,0.993,0.711,1.01,0.877,0.681,0.561,0.707
SSQTIYQRVEG [TFR2_Y23_V22I],0.812,0.898,1.39,0.756,1.5,1.41,0.562,0.602,1.24,0.716,0.771,2.71,0.525,2.74,0.814,1.6
ELTSVYDSRAR [SENP1_Y349],0.761,0.395,0.397,0.585,0.35,0.507,0.491,0.574,0.432,0.624,0.697,1.62,0.592,0.52,0.557,1.03

# Now from value to sequence, other results behind:
SH2 binding enrichment [14],SH2 binding enrichment [15],SH2 binding enrichment [16],Sequence,phosphorylation enrichment [1],phosphorylation enrichment [2],phosphorylation enrichment [3],phosphorylation enrichment [4],phosphorylation enrichment [5],phosphorylation enrichment [6],phosphorylation enrichment [7],phosphorylation enrichment [8],phosphorylation enrichment [9],phosphorylation enrichment [10],phosphorylation enrichment [11],phosphorylation enrichment [12],phosphorylation enrichment [13]
0.84,0.765,0.523,MCTVDYLLRLQ [RYR1_Y3921_I3916M],1.07,0.597,0.62,0.526,0.684,0.504,1.35,0.546,0.529,1.19,0.516,0.866,0.487
1.03,0.958,0.577,SVVVPSEPPEV [TP53_Y220_Y220S],0.971,0.598,0.642,0.503,0.755,0.426,1.12,0.511,0.484,0.851,0.431,0.74,0.449
1.07,0.75,0.588,FGFPGYQSKHF [TIMP3_Y177_YF],0.534,0.422,0.398,0.47,0.499,0.406,0.651,0.521,0.496,0.5,0.405,0.574,0.401
1.44,1.59,1.2,AKKKMYSCKTK [AGXT_Y231_R233C],1.01,0.62,0.578,0.588,1.64,0.613,1.19,0.417,0.537,2.73,0.529,1.95,0.474
0.936,0.914,0.593,GEDEPYSEPFA [APBA1_Y183_YF],1.34,0.485,0.523,0.603,0.68,0.512,1.06,0.588,0.599,1.02,0.493,0.598,0.598
0.918,0.553,0.416,FQEKSYIKGTS [LCTL_Y331_L326F],0.625,0.33,0.531,0.423,0.426,0.355,0.657,0.364,0.398,0.87,0.321,0.612,0.457
0.766,0.805,3.75,VCHELYNTIRD [PBRM1_Y54],0.898,0.546,0.608,0.489,0.683,0.683,0.975,0.718,3.01,0.761,0.448,0.978,1.38
0.837,0.645,0.506,SVVVPYEPSEV [TP53_Y220_P223S],1.21,0.632,0.515,0.52,0.846,0.685,1.23,0.554,0.6,1.02,0.503,0.619,0.509
0.798,1.06,1.37,SDFFAYSPVRE [H6PD_Y449_YF],0.928,0.614,0.591,0.422,0.675,0.821,1.02,0.514,0.68,1.01,0.473,0.615,0.573
0.949,0.92,0.724,AVEDQYYRVDC [FHL1_Y207_C209R],3.59,0.831,0.701,8.7,6.95,0.718,1.46,0.982,0.908,1.87,0.622,0.844,1.6
1.42,0.792,1.06,QYKGKYLAKHN [CASK_Y712_D710G],0.984,0.705,0.699,1.01,1.29,0.819,0.979,0.658,0.752,0.472,0.835,0.934,0.519
0.904,0.708,0.493,GHLFANDWISI [BEST1_Y227_Y227N_YF],0.703,0.424,0.625,0.43,0.484,0.427,0.789,0.399,0.502,0.782,0.421,0.627,0.469
1.01,1,0.704,AFLLLCFNDTH [BMP15_Y235_Y235C],1.42,0.724,0.696,0.501,0.918,0.663,1.44,0.563,0.561,1.63,0.484,1.01,0.413
